In the Immune Epitope Database (IEDB):

Assays:
[1] = molecular target: HLA-A*31:01; experiment: IEDB peptide-MHC binding, purified MHC/direct/fluorescence; filed as Kd, often an IC50 or EC50 that approximates it; ≥ and ≤ were set here for values at or beyond the usual limits of such assays
[2] = molecular target: HLA-B*38:01; experiment: as above; conditions: source organism: Giardia lamblia ATCC 50803
[3] = molecular target: HLA-A*02:01; experiment: as above
[4] = molecular target: HLA-B*40:01; experiment: as above
[5] = molecular target: HLA-A*11:01; experiment: as above
[6] = molecular target: HLA-B*57:01; experiment: as above; conditions: source organism: Giardia lamblia ATCC 50803
[7] = molecular target: HLA-B*08:02; experiment: as above; conditions: source organism: Giardia lamblia ATCC 50803
[8] = molecular target: HLA-B*27:05; experiment: as above
[9] = molecular target: HLA-A*01:01; experiment: as above
[10] = molecular target: HLA-B*48:01; experiment: as above; conditions: source organism: Giardia lamblia ATCC 50803
[11] = molecular target: HLA-B*46:01; experiment: as above
[12] = molecular target: HLA-B*07:02; experiment: as above
[13] = molecular target: HLA-B*15:09; experiment: as above; conditions: source organism: Giardia lamblia ATCC 50803
[14] = molecular target: HLA-B*39:01; experiment: as above; conditions: source organism: Giardia lamblia ATCC 50803
[15] = molecular target: HLA-B*15:01; experiment: as above
[16] = molecular target: HLA-B*58:01; experiment: as above; conditions: source organism: Giardia lamblia ATCC 50803
[17] = molecular target: HLA-A*03:01; experiment: as above
[18] = molecular target: HLA-B*15:17; experiment: IEDB peptide-MHC binding, purified MHC/competitive/fluorescence; filed as Kd, often an IC50 or EC50 that approximates it; ≥ and ≤ were set here for values at or beyond the usual limits of such assays; conditions: source organism: Giardia lamblia ATCC 50803
[19] = molecular target: HLA-A*69:01; experiment: as above; conditions: source organism: Giardia lamblia ATCC 50803
[20] = molecular target: HLA-B*27:05; experiment: IEDB peptide-MHC binding, purified MHC/competitive/fluorescence; ≥ and ≤ were set here for values at or beyond the usual limits of such assays; conditions: source organism: Hepacivirus hominis
[21] = molecular target: HLA-B*40:01; experiment: IEDB peptide-MHC binding, purified MHC/competitive/fluorescence; filed as Kd, often an IC50 or EC50 that approximates it; ≥ and ≤ were set here for values at or beyond the usual limits of such assays; conditions: source organism: Escherichia coli 536
[22] = molecular target: HLA-B*83:01; experiment: as above; conditions: source organism: Escherichia coli 536
[23] = molecular target: HLA-B*40:13; experiment: as above; conditions: source organism: Escherichia coli 536
[24] = molecular target: HLA-B*45:06; experiment: as above; conditions: source organism: Escherichia coli 536
[25] = molecular target: HLA-B*27:20; experiment: as above; conditions: source organism: Escherichia coli 536
[26] = molecular target: HLA-B*15:42; experiment: as above; conditions: source organism: Escherichia coli 536
[27] = molecular target: HLA-A*68:23; experiment: as above; conditions: source organism: Escherichia coli 536
[28] = molecular target: HLA-B*15:02; experiment: IEDB peptide-MHC binding, purified MHC/direct/fluorescence; filed as Kd, often an IC50 or EC50 that approximates it; ≥ and ≤ were set here for values at or beyond the usual limits of such assays; conditions: source organism: Yersinia pestis CA88-4125
[29] = molecular target: HLA-A*26:01; experiment: as above; conditions: source organism: Yersinia pestis
[30] = molecular target: HLA-A*69:01; experiment: as above; conditions: source organism: Yersinia pestis
[31] = molecular target: HLA-B*44:02; experiment: as above; conditions: source organism: Yersinia pestis
[32] = molecular target: HLA-B*08:01; experiment: as above; conditions: source organism: Yersinia pestis
[33] = molecular target: HLA-B*35:01; experiment: as above; conditions: source organism: Yersinia pestis
[34] = molecular target: HLA-A*24:02; experiment: IEDB peptide-MHC binding, purified MHC/competitive/fluorescence; filed as Kd, often an IC50 or EC50 that approximates it; ≥ and ≤ were set here for values at or beyond the usual limits of such assays; conditions: source organism: Influenza A virus (A/X-31(H3N2))
[35] = source organism: Giardia lamblia ATCC 50803
[36] = source organism: Yersinia pestis

With ETESVNSNY the Kd [1, 35] was ≥ 20 µM, the Kd [2] was ≥ 20 µM and the Kd [3, 35] was ≥ 20 µM. The Kd [4, 35] was ≥ 20 µM, the Kd [5, 35] was ≥ 20 µM and the Kd [6] was ≥ 20 µM. For the same sequence, the Kd [7] was ≥ 20 µM, the Kd [8, 35] was ≥ 20 µM and the Kd [9, 35] was 0.0188 µM. For the same sequence, the Kd [10] was ≥ 20 µM, the Kd [11, 35] was ≥ 20 µM and the Kd [12, 35] was ≥ 20 µM. For the same sequence, the Kd [13] was ≥ 20 µM, the Kd [14] was ≥ 20 µM and the Kd [15, 35] was ≥ 20 µM. The Kd [16] was ≥ 20 µM, the Kd [17, 35] was ≥ 20 µM and the Kd [18] was ≥ 20 µM. For the same sequence, the Kd [19] was ≥ 20 µM.

GGAAICGKY was tested, and the IC50 [20] was ≥ 750 µM.

KEMGFSPRL was tested, and the Kd [21] was 0.0103 µM, the Kd [22] was ≥ 5 µM and the Kd [23] was 0.0336 µM. For the same sequence, the Kd [24] was ≥ 5 µM, the Kd [25] was 0.176 µM and the Kd [26] was ≥ 5 µM. For the same sequence, the Kd [27] was 0.121 µM.

In the case of MQLQLNCAY, the Kd [28] is reported as 0.015 µM, the Kd [1, 36] is reported as 6.35 µM and the Kd [3, 36] is reported as ≥ 20 µM. The Kd [4, 36] was 0.705 µM, the Kd [29] was ≥ 20 µM and the Kd [5, 36] was ≥ 20 µM. For the same sequence, the Kd [8, 36] was ≥ 20 µM, the Kd [9, 36] was 2.77 µM and the Kd [30] was 1.33 µM. The Kd [11, 36] was ≥ 20 µM, the Kd [12, 36] was ≥ 10 µM and the Kd [31] was ≥ 20 µM. The Kd [32] was ≥ 20 µM, the Kd [15, 36] was 0.112 µM and the Kd [33] was 0.0337 µM. The Kd [17, 36] was ≥ 20 µM.

In the case of MYSDFHFI, the Kd [34] is reported as 0.146 µM.
